Measured values reported in article PMC11686999.

Target: Pyruvate kinase M2 (PKM2) (human (endogenous in HCT116 and RKO)) (UniProt P14618)
Assay: cross-linking

Sequence of Pyruvate kinase M2 (PKM2), P14618 1-531 (natural protein; other documents disagree on this pair) (P14618 whole entry): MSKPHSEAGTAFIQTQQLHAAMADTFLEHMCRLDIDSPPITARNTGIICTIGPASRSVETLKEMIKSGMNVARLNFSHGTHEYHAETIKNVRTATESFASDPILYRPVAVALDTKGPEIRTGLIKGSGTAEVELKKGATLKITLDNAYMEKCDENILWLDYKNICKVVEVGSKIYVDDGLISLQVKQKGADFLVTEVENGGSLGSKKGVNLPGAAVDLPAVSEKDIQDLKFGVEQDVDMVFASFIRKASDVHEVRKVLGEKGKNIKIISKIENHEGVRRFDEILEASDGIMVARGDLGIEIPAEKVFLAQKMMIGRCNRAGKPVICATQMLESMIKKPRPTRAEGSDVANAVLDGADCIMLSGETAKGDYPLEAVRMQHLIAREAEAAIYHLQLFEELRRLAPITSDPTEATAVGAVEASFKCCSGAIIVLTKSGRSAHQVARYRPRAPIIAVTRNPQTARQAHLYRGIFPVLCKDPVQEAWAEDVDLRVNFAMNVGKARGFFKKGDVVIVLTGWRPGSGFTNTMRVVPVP

A stoichiometry N of 2 was found for “Pyruvate kinase M2 (PKM2), P14618 1-531 (natural protein; other documents disagree on this pair)” in this work.
